{"source": "patent EP2014310A2", "about": "(Dyax Corporation, dated 2009)", "binders": {"B1": {"name": "dimer 17 (D17) (peptide)", "peptide 1": "AQDWYYDEILGRGGRGGRGGK", "peptide 2": "VCWEDSWGGEVCFRYDPGGGK", "modifications": "not fully specified; N-terminal acetyl; C-terminal Lys(JJ-Glut)-NH2; N-terminal acetyl; contains J (8-amino-3,6-dioxaoctanoyl); C-terminal Lys joined to linker K"}, "B2": {"name": "dimer 25 (D25) (peptide)", "peptide 1": "Ac-AGPTWCEDDWYYCWLFGTGGGK-NH2", "peptide 2": "Ac-GDSRVCWEDSWGGEVCFRYDPGGGK-NH2", "modifications": "disulfide I:6-I:13, II:6-II:16 (inferred); not fully specified (some residues, bridges); printed as Ac-AGPTWCEDDWYYCWLFGTGGGK{Ac-GDSRVCWEDSWGGEVCFRYDPGGGK[JJ-Glut-NH(CH_2)4-(S)-CH(NH_2)C(=O)-]-NH_2}-NH_2; also: heterodimer, chain 2 C-terminal Lys joined to linker"}, "B3": {"name": "SEQ ID NO:324 (peptide)", "peptide": "Ac-AGGHPCKGMLPHTCWYEGTGGGK-NH2", "modifications": "disulfide 6-14 (inferred); not fully specified; also: C-terminal Lys fluorescein-labeled in some assay forms"}, "B4": {"name": "SEQ ID NO:264 (peptide)", "peptide": "Ac-AGPKWCEEDWYYCMITGTGGGK-NH2", "modifications": "cysteine pairing not given here; also: C-terminal Lys fluorescein-labeled for some assays, unlabeled for others"}}, "note": "Bridge positions count the residues as written; N and C are the ends. Side chains are listed from the residue outwards. I, II: the chains in the order shown. * marks the point of attachment. Biotin = O=C1N[C@H]2[C@H](CS[C@H]2CCCCC(=O)*)N1; ivDde = CC(C)CC(=C1C(=O)CC(C)(C)CC1=O)*; AEEA = NCCOCCOCC(=O)O"}
{"target": "KDR on human umbilical vein endothelial cells (HUVECs) (human, UniProt P35968 20-1356)", "sequence (P35968 20-1356)": "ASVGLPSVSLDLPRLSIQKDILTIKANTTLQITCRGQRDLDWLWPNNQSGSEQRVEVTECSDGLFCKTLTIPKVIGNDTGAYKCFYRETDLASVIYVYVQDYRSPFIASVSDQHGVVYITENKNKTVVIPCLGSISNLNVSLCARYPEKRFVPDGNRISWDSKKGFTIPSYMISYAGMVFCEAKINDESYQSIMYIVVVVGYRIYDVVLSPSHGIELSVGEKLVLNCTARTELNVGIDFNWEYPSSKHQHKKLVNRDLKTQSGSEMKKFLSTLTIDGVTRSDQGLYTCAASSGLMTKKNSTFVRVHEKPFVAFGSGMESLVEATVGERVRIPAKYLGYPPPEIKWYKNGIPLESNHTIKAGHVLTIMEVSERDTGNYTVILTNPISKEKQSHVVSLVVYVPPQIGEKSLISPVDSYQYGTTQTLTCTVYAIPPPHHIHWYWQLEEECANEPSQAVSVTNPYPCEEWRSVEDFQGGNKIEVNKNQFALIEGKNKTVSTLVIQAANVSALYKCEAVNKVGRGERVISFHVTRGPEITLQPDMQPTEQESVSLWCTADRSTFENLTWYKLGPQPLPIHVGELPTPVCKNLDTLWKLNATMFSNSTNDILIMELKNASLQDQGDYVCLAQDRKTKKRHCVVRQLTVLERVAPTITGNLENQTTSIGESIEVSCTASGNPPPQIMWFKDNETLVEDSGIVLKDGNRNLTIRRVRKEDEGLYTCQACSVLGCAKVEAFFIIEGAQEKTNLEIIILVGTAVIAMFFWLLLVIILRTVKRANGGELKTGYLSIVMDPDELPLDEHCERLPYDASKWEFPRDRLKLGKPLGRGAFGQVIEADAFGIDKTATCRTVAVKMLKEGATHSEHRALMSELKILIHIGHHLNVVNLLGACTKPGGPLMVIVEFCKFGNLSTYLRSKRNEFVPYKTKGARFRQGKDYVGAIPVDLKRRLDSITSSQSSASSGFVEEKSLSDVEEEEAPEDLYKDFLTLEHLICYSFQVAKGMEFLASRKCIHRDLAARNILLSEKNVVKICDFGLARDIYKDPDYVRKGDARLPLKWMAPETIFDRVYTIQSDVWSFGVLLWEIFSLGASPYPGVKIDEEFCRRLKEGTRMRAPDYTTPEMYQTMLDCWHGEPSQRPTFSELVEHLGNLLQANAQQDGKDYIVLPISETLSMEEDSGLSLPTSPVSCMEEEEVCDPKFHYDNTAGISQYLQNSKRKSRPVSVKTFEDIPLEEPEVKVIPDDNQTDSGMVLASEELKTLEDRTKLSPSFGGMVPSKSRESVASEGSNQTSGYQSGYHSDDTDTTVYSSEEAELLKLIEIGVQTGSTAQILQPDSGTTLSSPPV", "test": "cell-based or functional assay", "units": {"VEGF-induced KDR phosphorylation in HUVECs": "% inhibition at 10 µM", "IC50, VEGF-induced migration of HUVECs": "nM", "IC50, receptor activation assay": "nM"}}
{"binder": "Ac-GDPDTCTMWGDSGRWYCFPADPGGGK-NH2 (disulfide 6-17 (inferred); not fully specified)", "note": "[SEQ ID NO:301]", "VEGF-induced KDR phosphorylation in HUVECs": "≥ 50"}
{"binder": "Ac-AQAFPRFGGDDYWIQQYLRYTDGGK-NH2 (not fully specified)", "note": "[SEQ ID NO:306]", "VEGF-induced KDR phosphorylation in HUVECs": "≥ 50"}
{"binder": "B1", "IC50, VEGF-induced migration of HUVECs": "~250"}
{"binder": "Ac-GDWWECK(ivDde)REEYRNTTWCAWADPGGGK-NH2 (disulfide 6-17 (inferred))", "note": "[Ac-GDWWECK(ivDde)REEYRNTTWCAWADPGGGK-NH2 (SEQ ID NO:366 having a blocked K)]", "VEGF-induced KDR phosphorylation in HUVECs": "≥ 50"}
{"binder": "Ac-AGWLECYAEFGHCYNFGTGGGK-NH2 (disulfide 6-13 (inferred); not fully specified)", "note": "[SEQ ID NO:267]", "VEGF-induced KDR phosphorylation in HUVECs": "≥ 50"}
{"binder": "VCWEDSWGGEVCFRYDPGGGK", "note": "[SEQ ID NO:337 monomeric free peptide (VCWEDSWGGEVCFRYDPGGGK)]", "IC50, receptor activation assay": 1000}
{"binder": "B2", "IC50, VEGF-induced migration of HUVECs": 5}
{"binder": "Ac-AQEPEGYAYWEVITLYHEEDGDGGK-NH2 (not fully specified)", "note": "[SEQ ID NO:305]", "VEGF-induced KDR phosphorylation in HUVECs": "≥ 50"}
{"binder": "Ac-AQGDYVYWEIIELTGATDHTPPGGK-NH2 (not fully specified)", "note": "[SEQ ID NO:307]", "VEGF-induced KDR phosphorylation in HUVECs": "≥ 50"}
{"binder": "Ac-AGWIECYHPDGICYHFGTGGGK-NH2 (disulfide 6-13 (inferred); not fully specified)", "note": "[SEQ ID NO:269]", "VEGF-induced KDR phosphorylation in HUVECs": "≥ 50"}
{"target": "T1, human KDR-Fc fusion (R&D Systems #357-KD-050) (human, UniProt P35968 20-764)", "T1 construct": "bought", "T1 sequence (P35968 20-764)": "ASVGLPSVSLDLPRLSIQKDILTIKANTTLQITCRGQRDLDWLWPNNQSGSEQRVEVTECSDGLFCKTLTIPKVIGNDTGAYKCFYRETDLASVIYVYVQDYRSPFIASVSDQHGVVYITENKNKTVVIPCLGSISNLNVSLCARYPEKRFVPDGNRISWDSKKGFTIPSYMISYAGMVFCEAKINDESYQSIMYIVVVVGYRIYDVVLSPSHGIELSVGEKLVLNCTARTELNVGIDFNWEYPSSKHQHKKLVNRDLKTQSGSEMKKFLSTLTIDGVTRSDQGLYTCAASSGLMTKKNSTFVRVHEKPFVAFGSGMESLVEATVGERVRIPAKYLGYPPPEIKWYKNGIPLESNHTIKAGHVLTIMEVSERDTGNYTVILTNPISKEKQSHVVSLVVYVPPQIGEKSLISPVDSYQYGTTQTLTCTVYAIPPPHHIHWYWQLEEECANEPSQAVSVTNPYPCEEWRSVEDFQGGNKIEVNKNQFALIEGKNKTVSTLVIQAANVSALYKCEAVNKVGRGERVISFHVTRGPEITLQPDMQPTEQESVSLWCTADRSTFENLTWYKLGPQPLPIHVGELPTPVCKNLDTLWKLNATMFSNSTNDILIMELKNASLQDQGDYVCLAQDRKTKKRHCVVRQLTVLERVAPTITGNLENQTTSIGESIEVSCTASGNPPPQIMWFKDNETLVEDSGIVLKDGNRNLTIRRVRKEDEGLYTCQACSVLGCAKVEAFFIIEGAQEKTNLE", "test": "phage binding screen on KDR-Fc; class legend in paragraph 246"}
{"binder": "RGPCSGQPWHLCYYQ", "note": "[phage isolate RGPCSGQPWHLCYYQ]", "binding result": "binds"}
{"binder": "IDFCKGMAPWLCADM", "note": "[phage isolate IDFCKGMAPWLCADM]", "binding result": "binds"}
{"binder": "MPWCSEVTWGWCKLN", "note": "[phage isolate MPWCSEVTWGWCKLN]", "binding result": "binds"}
{"binder": "PWTCWLEDHLACAML", "note": "[phage isolate PWTCWLEDHLACAML]", "binding result": "binds"}
{"target": "T1, human KDR-Fc fusion (R&D Systems …)", "test": "phage binding screen on KDR-Fc; class legend in paragraph 246", "remark": "another data set of the same source"}
{"binder": "MPPGFSYWEQAALHDDAQDL", "note": "[phage isolate MPPGFSYWEQAALHDDAQDL]", "binding result": "binds"}
{"binder": "VSKGSIDVGEGISYWEIIEL", "note": "[phage isolate VSKGSIDVGEGISYWEIIEL]", "binding result": "binds"}
{"binder": "WESDYWDQMRQQLKTAYMKV", "note": "[phage isolate WESDYWDQMRQQLKTAYMKV]", "binding result": "binds"}
{"binder": "PEDSEAWYWLNYRPTMFHQL", "note": "[phage isolate PEDSEAWYWLNYRPTMFHQL]", "binding result": "binds"}
{"binder": "TKWGPNPEHWQYWYSHYASS", "note": "[phage isolate TKWGPNPEHWQYWYSHYASS]", "binding result": "binds"}
{"binder": "LEEVFEDFQDFWYTEHIIVDR", "note": "[phage isolate LEEVFEDFQDFWYTEHIIVDR]", "binding result": "binds"}
{"binder": "WYHDGLHNERKPPSHWIDNV", "note": "[phage isolate WYHDGLHNERKPPSHWIDNV]", "binding result": "binds"}
{"binder": "STNGDSFVYWEEVELVDHPY", "note": "[phage isolate STNGDSFVYWEEVELVDHPY]", "binding result": "binds"}
{"binder": "RDEWGWTGVPYEGEMGYQIS", "note": "[phage isolate RDEWGWTGVPYEGEMGYQIS]", "binding result": "binds"}
{"binder": "QIEYVNDKWYWTGGYWNVPF", "note": "[phage isolate QIEYVNDKWYWTGGYWNVPF]", "binding result": "binds"}
{"binder": "SYEQWLPQYWAQYKSNYFL", "note": "[phage isolate SYEQWLPQYWAQYKSNYFL]", "binding result": "binds"}
{"target": "T2, KDR/VEGF complex (KDR-Fc mixed or saturated with VEGF) (human, UniProt P35968 20-764; P15692 27-191)", "T2 construct": "anisotropy: two fold molar excess of VEGF mixed with KDR-Fc; Biacore: KDR-Fc chip saturated with VEGF; also called KDR:VEGF165 complex", "T2 sequence (P35968 20-764, chain 1 of 2)": "as the sequence (P35968 20-764) above", "T2 sequence (P15692 other isoform, or with tags, fused parts or gaps, chain 2 of 2)": "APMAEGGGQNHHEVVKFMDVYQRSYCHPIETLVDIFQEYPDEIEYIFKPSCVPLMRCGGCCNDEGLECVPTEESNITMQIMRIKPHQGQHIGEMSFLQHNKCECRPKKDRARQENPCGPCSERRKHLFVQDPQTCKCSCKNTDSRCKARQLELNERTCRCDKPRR", "test": "fluorescence anisotropy, fluorescein-labeled peptide, KDR-Fc with two fold excess VEGF", "units": {"Kd": "nM"}}
{"binder": "B3", "Kd": 3300}
{"target": "T1, human KDR-Fc fusion (R&D Systems …)", "test": "phage binding screen on KDR-Fc; class legend in paragraph 246", "remark": "another data set of the same source"}
{"binder": "GVECNHMGLCVSW", "note": "[phage isolate GVECNHMGLCVSW]", "binding result": "binds"}
{"binder": "WVECNHKGLCREY", "note": "[phage isolate WVECNHKGLCREY]", "binding result": "binds"}
{"binder": "GITCDELGRCVHW", "note": "[phage isolate GITCDELGRCVHW]", "binding result": "binds"}
{"binder": "WIQCNHQGQCFHG", "note": "[phage isolate WIQCNHQGQCFHG]", "binding result": "binds"}
{"binder": "WYWCEFYGVCSEE", "note": "[phage isolate WYWCEFYGVCSEE]", "binding result": "binds"}
{"binder": "WIECNKDGKCWHY", "note": "[phage isolate WIECNKDGKCWHY]", "binding result": "binds"}
{"target": "T1, human KDR-Fc fusion (R&D Systems …)", "test": "Biacore, KDR-Fc on CM5 chip, unlabeled peptide", "units": {"Kd": "nM"}}
{"binder": "B4", "Kd": 27}
{"binder": "Ac-GDPDTCTMWGDSGRWYCFPADPGGGK-NH2 (disulfide 6-17 (inferred); not fully specified)", "note": "[SEQ ID NO:301]", "Kd": 260}
{"binder": "Ac-GDYPWCHELSDSVTRFCVPWDPGGGK-NH2 (disulfide 6-17 (inferred); not fully specified)", "note": "[SEQ ID NO:293]", "Kd": 180}
{"binder": "Ac-AQRGDYQEQYWHQQLVEQLKLLGGK-NH2 (not fully specified)", "note": "[SEQ ID NO:308]", "Kd": 5300}
{"binder": "Ac-AQAFPRFGGDDYWIQQYLRYTDGGK-NH2 (not fully specified)", "note": "[SEQ ID NO:306]", "Kd": 250}
{"binder": "Ac-GDDHMCRSPDYQDHVFCMYWDPGGGK-NH2 (disulfide 6-17 (inferred); not fully specified)", "note": "[SEQ ID NO:295]", "Kd": 140}
{"binder": "Ac-GSDHHCYLHNGQWICYPFAPGGGK-NH2 (disulfide 6-15 (inferred); not fully specified)", "note": "[SEQ ID NO:314]", "Kd": 150}
{"binder": "Ac-GDNWECGWSNMFQKEFCARPDPGGGK-NH2 (disulfide 6-17 (inferred); not fully specified)", "note": "[SEQ ID NO:303]", "Kd": 990}
{"binder": "Ac-GDGSWCEMRQDVGKWNCFSDDPGGGK-NH2 (disulfide 6-17 (inferred); not fully specified)", "note": "[SEQ ID NO:299]", "Kd": 180}
{"binder": "Ac-AQEPEGYAYWEVITLYHEEDGDGGK-NH2 (not fully specified)", "note": "[SEQ ID NO:305]", "Kd": 730}
{"binder": "Ac-GDGWACAKWPWGGEICQPSDPGGGK-NH2 (disulfide 6-16 (inferred); not fully specified)", "note": "[SEQ ID NO:300]", "Kd": 1500}
{"binder": "Ac-AGWIECYHPDGICYHFGTGGGK-NH2 (disulfide 6-13 (inferred); not fully specified)", "note": "[SEQ ID NO:269]", "Kd": 320}
{"binder": "Ac-AGIDFCKGMAPWLCADMGTGGGK-NH2 (disulfide 6-14 (inferred); not fully specified)", "note": "[SEQ ID NO:311]", "Kd": 180}
{"binder": "Ac-AQDWYYDEILSMADQLRHAFLSGGGK-NH2 (not fully specified)", "note": "[SEQ ID NO:310]", "Kd": 50}
{"target": "KDR on transiently KDR-transfected 293H cells (human) (UniProt P35968)", "sequence (P35968 20-1356)": "as the sequence (P35968 20-1356) above", "test": "neutravidin-HRP complexes, KDR minus mock 293H cells"}
{"binder": "Ac-AQDWYYDEILSMADQLRHAFLSGGGGGK([AEEA-AEEA-Biotin])-NH2 (peptide, part only; not given: neutravidin-HRP, not shown: large carriers, also: tetrameric complex with neutravidin-HRP)", "note": "[tetrameric complex of biotinylated SEQ ID NO:356 (JJ spacer) with neutravidin-HRP]", "ratio of specific binding to that of monomer (Tetramer)": 16}
{"target": "VEGF165 (Peprotech #100-20) (UniProt P15692-4 27-191)", "sequence (P15692 other isoform, or with tags, fused parts or gaps limits assumed)": "as the sequence (P15692 other isoform, or with tags, fused parts or gaps, chain 2 of 2) above", "test": "fluorescence anisotropy, fluorescein-labeled peptide"}
{"binder": "B3", "binding result": "no binding"}
{"target": "T1, human KDR-Fc fusion (R&D Systems …)", "test": "fluorescence anisotropy, fluorescein-labeled peptide", "units": {"Kd": "nM"}}
{"binder": "Ac-GDPDTCTMWGDSGRWYCFPADPGGGK-NH2 (disulfide 6-17 (inferred); not fully specified)", "note": "[SEQ ID NO:301]", "Kd": 490}
{"binder": "Ac-GDYPWCHELSDSVTRFCVPWDPGGGK-NH2 (disulfide 6-17 (inferred); not fully specified)", "note": "[SEQ ID NO:293]", "Kd": 980}
{"binder": "Ac-AQRGDYQEQYWHQQLVEQLKLLGGK-NH2 (not fully specified)", "note": "[SEQ ID NO:308]", "Kd": 310}
{"binder": "Ac-AQAFPRFGGDDYWIQQYLRYTDGGK-NH2 (not fully specified)", "note": "[SEQ ID NO:306]", "Kd": 530}
{"binder": "Ac-GDDHMCRSPDYQDHVFCMYWDPGGGK-NH2 (disulfide 6-17 (inferred); not fully specified)", "note": "[SEQ ID NO:295]", "Kd": 480}
{"binder": "Ac-GSDHHCYLHNGQWICYPFAPGGGK-NH2 (disulfide 6-15 (inferred); not fully specified)", "note": "[SEQ ID NO:314]", "Kd": 260}
{"binder": "Ac-GDNWECGWSNMFQKEFCARPDPGGGK-NH2 (disulfide 6-17 (inferred); not fully specified)", "note": "[SEQ ID NO:303]", "Kd": 210}
{"binder": "Ac-GDGSWCEMRQDVGKWNCFSDDPGGGK-NH2 (disulfide 6-17 (inferred); not fully specified)", "note": "[SEQ ID NO:299]", "Kd": 620}
{"binder": "Ac-AQEPEGYAYWEVITLYHEEDGDGGK-NH2 (not fully specified)", "note": "[SEQ ID NO:305]", "Kd": 270}
{"binder": "Ac-GDGWACAKWPWGGEICQPSDPGGGK-NH2 (disulfide 6-16 (inferred); not fully specified)", "note": "[SEQ ID NO:300]", "Kd": 1000}
{"binder": "Ac-AQGDYVYWEIIELTGATDHTPPGGK-NH2 (not fully specified)", "note": "[SEQ ID NO:307]", "Kd": 180}
{"binder": "Ac-AGWIECYHPDGICYHFGTGGGK-NH2 (disulfide 6-13 (inferred); not fully specified)", "note": "[SEQ ID NO:269]", "Kd": 320}
{"binder": "Ac-AGIDFCKGMAPWLCADMGTGGGK-NH2 (disulfide 6-14 (inferred); not fully specified)", "note": "[SEQ ID NO:311]", "Kd": 730}
